From PMC9266650 (2022)
Like-named read-outs stand apart in the source and are kept apart here.

Assays:
[1] = molecular target: T1, T148-ADP-ribosylated-actin (100% TccC3-ADP-ribosylated actin) ( (purified from rabbit or …, UniProt P68135 1-377))
[2] = molecular target: T2, Skeletal actin, unmodified (0% ADPR-actin control) ( (purified from rabbit or …, UniProt P68135 1-377))
[3] = molecular target: T1, T148-ADP-ribosylated-actin (100% …); assay: FP
[4] = molecular target: T2, Skeletal actin, unmodified (0% …); assay: FP

B1: Actin-depolymerizing factor (natural protein)
chain: MASGVQVADEVCRIFYDMKVRKCSTPEEIKKRKKAVIFCLSADKKCIIVEEGKEILVGDVGVTITDPFKHFVGMLPEKDCRYALYDASFETKESRKEELMFFLWAPELAPLKSKMIYASSKDAIKKKFQGIKHECQANGPEDLNRACIAEKLGGSLIVAFEGCPV
Q: Which results are given for B1?
A: Kd [1]: 331 nM; Kd [2]: 21.6 nM

Q: For SDKPDMAEIEKFDKSKLKKTETQEKNPLPSKETIEQEKQAGES (not fully specified; ADP-ribose on threonine-148 (T148)), which Kd [3] is on record?
A: 2440 nM

Q: SDKPDMAEIEKFDKSKLKKTETQEKNPLPSKETIEQEKQAGES (not fully specified) was tested. Which Kd [4] did it give?
A: 380 nM
